Assay results reported in patent US20210139605A1 (AGENCY FOR SCIENCE TECHNOLOGY AND RESEARCH, published 2021).
Residue numbers refer to the chain shown, from its start.

B1: PFB2 Fab (Fab, V domains shown)
VH: EVQLVQSGAEVKKPGASVKVSCKASGYTFTSYGISWVRQAPGEGLEWMGWISAYNGNTNYAQKLQGRVTMTTDTSTSTAYMELRSLRSDDTAVYYCARDWGSSWSDYWGQGTLVTVSS
VL: ETTLTQSPATLSLSPGERATLSCRASQSVRNNLAWYQHKPGQAPRLLIYYASTRATGIPDRFSGSGSGTDFTLTISRLEPEDFALYYCQHYGSSRTFGQGTKVEIKR
notes: Printed entries run through CL and CH1 (Fab chains); Label B2 tied to PFB2 by inference
B2: PFA1 Fab (Fab, V domains shown)
VH: EVQLVQSGGGVVQPGRSLRLSCAASGFTFSSYGMHWVRQAPGKGLEWVAVISYDGSNKYYADSVKGRFTISRDNSKNTLFLQMNSLRAEDTAVYYCARDLFAVVGYYYYYGMDVWGQGTTVTVSS
VL: EIVLTQSPFSLPVTPGEPASISCRSSQSLLHSNGFNYLDWYLQKPGQSPQLLIYLGSNRASGVPDRFSGSGSGTDFTLKISRVEAEDVGVYYCMQGLQTPYTFGQGTKLEIKR
notes: Entries are labelled light/heavy chain VD but as printed run through CL and CH1 (Fab chains); Label A1 tied to PFA1 by inference
B3: PFD2 Fab (Fab, V domains shown)
VH: QVQLQQWGAGLLKPSETLSLTCAVYGGSFSGYYWSWIRQPPGKGLEWIGEINHSGSTNYNPSLKSRVTISVDTSKNQFSLKLSSVTAADTAVYYCARGLPYYYFDYWGQGTLVTVSS
VL: QSVVTQPPSVSGAPGQRVTISCTGRSANIGGFDVQWYRQLPGTAPQLLIYDNSNRPSGVPDRFSGSKSGTSATLAISGLQTGDEADYYCGTWDSYLNIWVFGGGTKLTVLS
notes: Printed entries run through CL and CH1 (Fab chains); Label D2 tied to PFD2 by inference
B4: PFF2 Fab (Fab, V domains shown)
VH: QMQLVQSGGGVVQPGRSLRLSCAASGFSFKNYGMHWVRQAPGKGLEWVAFISYDGTNKYYADSVKGRFTISRDNSKNTLYLQMNSLRAEDTAVYYCAKHYGDYYYYYGMDVWGQGTTVTVSS
VL: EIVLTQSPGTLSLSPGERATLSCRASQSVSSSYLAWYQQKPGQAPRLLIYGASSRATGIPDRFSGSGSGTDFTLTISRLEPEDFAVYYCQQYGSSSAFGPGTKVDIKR
notes: Printed entries run through CL and CH1 (Fab chains); Label F2 tied to PFF2 by inference
B5: PFG2 Fab (Fab, V domains shown)
VH: EVQLVQSGGGLVQPGGSLRLSCAASGFTFSSYAMSWVRQAPGKGLEWVSSISSSSSYIYYADSVKGRFTISRDNAKNSLYLQMNSLRAEDTAVYYCARDGSAWSRPYWGQGTLVTVSS
VL: EIVLTQSPATLSLSPGERATLSCRASQSVSSYLAWYQQKPGQAPRLLIYDASNRATGIPARFSGSGSGTDFTLTISSLEPEDFAVYYCQQRSNWPLTFGGGTKVEIKR
notes: Printed entries run through CL and CH1 (Fab chains); Label G2 tied to PFG2 by inference
B6: PFA5 Fab (Fab, V domains shown)
VH: QVQLVQSGAEVKKPGASVKVSCKASGYTFTSYAMHWVRQAPGQRLEWMGWINAGNGNTKYSQKFQGRVTITRDTSASTAYMELSSLRSEDTAVYYCARGGYLVGYWGQGTLVTVSS
VL: not shown
notes: Printed entries run through CL and CH1 (Fab chains); Label A5 tied to PFA5 by inference
B7: PFB3 Fab (Fab, V domains shown)
VH: QVQLQESGGGLVQPGGSLRLSCAASGFTFSSYAMSWVRQAPGKGLEWVSAISGSGGSTYYADSVKGRFTISRDNSKNTVYLQMNSLRAEDTAVYYCARTYYDFWSGRVGAFDIWGQGTTVTVSS
VL: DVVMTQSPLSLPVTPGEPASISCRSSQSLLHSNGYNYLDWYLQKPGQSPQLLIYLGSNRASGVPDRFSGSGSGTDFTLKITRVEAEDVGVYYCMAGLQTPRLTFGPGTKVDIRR
notes: Printed entries run through CL and CH1 (Fab chains); Label B3 tied to PFB3 by inference
B8: PFF3 Fab (Fab, V domains shown)
VH: QVQLVQSGGGLVQPGGSLRLSCSASGFTFSSYAIHWVRQAPGKGLEYVSAISSNGGSTYYADSVKGRFTISRDNSKNTLYLQMNSLRAEDTAVYYCARVYGYGLHYYGMDVWGQGTTVTVSS
VL: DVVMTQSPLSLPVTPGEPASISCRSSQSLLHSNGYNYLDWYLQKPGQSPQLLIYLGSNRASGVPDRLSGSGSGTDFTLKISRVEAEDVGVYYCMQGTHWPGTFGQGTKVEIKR
notes: Printed entries run through CL and CH1 (Fab chains); Label F3 tied to PFF3 by inference
B9: PFE2 Fab (Fab, V domains shown)
VH: EVQLVQSGGGVVQPGRSLRLSCAASGFTFSSYAMHWVRQAPGKGLEWVAVISYDESNKYYADSVKGRFTISRDNSKNTLYLQMNSLRAEDTAVYYCAREPSGSWSYLYYYYYGMDVWGQGTTVTVSS
VL: DVVMTQSPLSLPVTPGEPASISCRSSQSLLRSDGYNFVDWYLQKAGQSPQLLIHLGSDRASGVPDRFSGSGSGTDFTLRISRVEAEDVGVYYCMQALQTPRTFGQGTKVEIKR
notes: Printed entries run through CL and CH1 (Fab chains); Label E2 tied to PFE2 by inference
B10: PFC3 Fab (Fab, V domains shown)
VH: QVQLVQSGGGLVQPGGSLRLSCAASGFTFSSYAMSWVRQAPGKGLEWVSGINWNGGSTGYADSVKGRFTISRDNSKNTLYLQMNSLRAEDTAVYYCAKGLVPAASMDVWGQGTTVTVSS
VL: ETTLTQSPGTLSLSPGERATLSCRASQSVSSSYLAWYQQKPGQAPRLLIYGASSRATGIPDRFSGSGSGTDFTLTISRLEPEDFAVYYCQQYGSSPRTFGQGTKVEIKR
notes: Printed entries run through CL and CH1 (Fab chains); Label C3 tied to PFC3 by inference
B11: PFG4 Fab (Fab, V domains shown)
VH: QVQLQQSGAEVKKPGSSVKVSCKASGGTFSSYAISWVRQAPGQGLEWMGGIIPIFGTANYAQKFQGRVTITADKSTSTAYMELSSLRSEDTAVYYCARGADWNSDYWGQGTLVTVSS
VL: QSVLTQPPSVSKALRQTATLTCTGNNNNVGFAGAAWFLQHQGHPPKLLAYRNNDRPSGISERFSASRSGNTASLTITGLQPEDEADYYCSAWDSSLKVQVFGGGTKLTVLG
notes: Printed entries run through CL and CH1 (Fab chains); Label G4 tied to PFG4 by inference
B12: PFA2 Fab (Fab, V domains shown)
VH: QVQLQQSGPGLVKPSQTLSLTCAISGESVSSAAAAWNWIRQSPSRGLEWLGRTYYRSKWYSEYAVSVKSRITINGDTSKNQVSLHLNAVTPEDTAIYYCVRGSIFDVWGQGTMVTVSS
VL: EIVLTQSPLSLPVTPGEPASISCRSSQSLLHSDGNKYLDWYLQKPGQSPQLLIYLGSNRASGVPERFSGSGSGTDFTLKISRVEAEDVGVYYCMLGTHWPPMYIFGQGTKLEIKR
notes: Printed entries run through CL and CH1 (Fab chains); Label A2 tied to PFA2 by inference
B13: PFA4 Fab (Fab, V domains shown)
VH: EVQLVQSGGGVVQPGRSLRLSCAASGFTFSSYAMHWVRQAPGKGLEWVAVISYDGSNKYYADSVKGRFTISRDNSKNTLYLQMNSLRAEDTAVYYCARSRGYYGMDVWGQGTTVTVSS
VL: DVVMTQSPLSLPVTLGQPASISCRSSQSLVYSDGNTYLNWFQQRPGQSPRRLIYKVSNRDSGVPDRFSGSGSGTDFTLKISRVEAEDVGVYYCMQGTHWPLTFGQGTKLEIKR
notes: Printed entries run through CL and CH1 (Fab chains); Label A4 tied to PFA4 by inference
B14: PFE5 Fab (Fab, V domains shown)
VH: B13 VH
VL: DIQMTQSPSSLSASVGDRVTITCRASQGISSWLAWYQQKPGKAPKLLIYAASSLQSGVPSRFSGSGSGTDFTLTISSLQPEDFATYYCQQANSFPPTFGPGTKVDIKR
notes: Printed entries run through CL and CH1 (Fab chains); Label E5 tied to PFE5 by inference
B15: PFD1 Fab (Fab, V domains shown)
VH: B13 VH with A33G, S75A, T78S, Y103S, M105Y, V107N, T113L
VL: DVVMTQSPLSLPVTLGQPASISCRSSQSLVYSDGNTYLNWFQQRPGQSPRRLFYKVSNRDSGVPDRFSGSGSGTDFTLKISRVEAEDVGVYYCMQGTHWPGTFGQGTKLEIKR
notes: Printed entries run through CL and CH1 (Fab chains); Label D1 tied to PFD1 by inference
B16: PFB1 Fab (Fab, V domains shown)
VH: QVQLQESGGGLVQPGGSLRLSCAASGFTFSSFAMNWVRQAPGKGLEWVSTIGGSGDSTFYADPVKGRFTVSRDNSKNTLYLQMNSLRAEDTAVYYCAQAYGSGGHYFFAYWGQGTLVTVSS
VL: DVVMTQSPLSLPVTPGEPASISCRSSQSLLHSNGNTYLDWYLQKPGQSPQVLIYSGSNRASGVPDRFSGSGSGTDFTLKISRVEAEDVGVYYCMQGTHWPPTFGQGTKVEIKR
notes: Printed entries run through CL and CH1 (Fab chains); Label B1 tied to PFB1 by inference
B17: PFG1 Fab (Fab, V domains shown)
VH: EVQLVQSGGGVVQPGRSLRLSCAASGFTFSSYGMHWVRQAPGKGLEWVAVIWYDGSNKYYADSVKGRFTISRDNSKNTLYLQMNSLRAEDTAVYYCATMTTEDYWGQGTLVTVSS
VL: QAVLTQPSSLSASPGASASLTCTLRSGINVGTYRIYWYQQKPGSPPQYLLRYKSDSDKQQGSGVPSRFSGSKDASANAGILLISGLQSEDEADYYCMIWHSSAWVFGGGTKLTVLG
notes: Printed entries run through CL and CH1 (Fab chains); Label G1 tied to PFG1 by inference
B18: clone A3 Fab (P1A3, from the phage display Fab library) (Fab, V domains shown)
VH: EVQLVQSGTEVKKPGASVRVSCKSSGYTFTSYYIHWVRQAPGQGLEWMAIINPGNGDTNYAQRFQGRVTMTRDTSTSTVYMELRSLRSDDTAVYFCAREIASYSGSYYDYWGQGTLVTVSS
VL: QAVVTQEPSLSVSPGGTVTLTCGLSSGSVSTGHYASWYQQTPGQAPRTLFYNTNTRSSGVPDRFSGSIVGNKAALTITGAQADDESDYYCVLYVGDGIWVFGGGTKLTVLG
B19: PFB5 Fab (Fab, V domains shown)
VH: EVQLVQSGAEVKKPGSSVKVSCKASGGTFSSYAISWVRQAPGQGLEWMGGIIPIFGTANYAQKFQGRVTITADESTSTAYMELSSLRSEDTAVYYCARGRGSGYPDTWFWFDPWGQGTLVTVSS
VL: not shown
notes: Printed entries run through CL and CH1 (Fab chains); Label B5 tied to PFB5 by inference
B20: PFD4 Fab (Fab, V domains shown)
VH: QVQLVQSGGGLVQPGGSLRLSCSASGFTFSSYAMHWVRQAPGKGLEYVSAISSNGGSTYYADSVKGRFTISRDNSKNTLYLQMSSLRAEDTAVYYCARSRGYYGMDVWGQGTTVTVSS
VL: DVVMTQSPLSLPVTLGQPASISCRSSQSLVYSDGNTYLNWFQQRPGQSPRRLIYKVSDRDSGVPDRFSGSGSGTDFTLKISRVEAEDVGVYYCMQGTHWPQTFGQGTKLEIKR
notes: Printed entries run through CL and CH1 (Fab chains); Label D4 tied to PFD4 by inference
B21: clone C5 Fab (P1C5, from the phage display Fab library) (Fab, V domains shown)
VH: QVQLQESGPGLVKPSETLSLTCTVSGGSISSSSYYWGWIRQPPGKGLEWIGSIYYSGSTYYNPSLKSRVTISVDTSKNQFSLKLSSVTAADTAVYYCARYAPDSSGYLVAFDIWGQGTMVTVSS
VL: QTVVTQEPSFSVSPGGTVTLTCGLSSGSVSTGYYPSWYQQTPGQAPRTLIYSTNSRSSGVPDRFSGSILGNKAALTITGAQADDESDYYCVLYMGSGISVFGGGTKLTVLG
B22: PFD3 Fab (Fab, V domains shown)
VH: EVQLVQSGAEVKKPGESLKISCKGSGYSFTSYWIGWVRQMPGKGLEWMGIIYPGDSDTRYSPSFQGQVTISADKSISTAYLQWSSLKASDTAMYYCARLGYGVPLPEYFDLWGRGTLVTVSS
VL: B21 VL with T2A, T5I, G23A, S25T, G32S, A45P, S55L, V91E, L107V
notes: Printed entries run through CL and CH1 (Fab chains); Label D3 tied to PFD3 by inference
B23: clone E4 Fab (P1E4, from the phage display Fab library) (Fab, V domains shown)
VH: QVQLQQWGAGLLKPSETLSLTCAVYGGSFSGYYWSWIRQPPGKGLEWIGEINHSGSTNYNPSLKSRVTISVDTSKNQFSLKLSSVTTADTAVYYCARMGINSGGYLYGMDVWGQGTTVTVSS
VL: B21 VL with G32S, T41I, S52T, S55I, S65G, D83E, V91M, S99W
B24: clone F1 Fab (P1F1, from the phage display Fab library) (Fab, V domains shown)
VH: QVQLVESGPGLVKPSGTLSLTCAVSGGSISSSNWWSWVRQPPGKGLEWIGEIYHSGSTNYNPSLKSRVTISVDTSKNQFSLKLSSVTAADTAVYYCARMGANSGGYLYGMDVWGQGTTVTVSS
VL: B21 VL with G32S, S55T, S99W

Columns and labels:
[1] = target: T1, human HER-2 protein (soluble / recombinant, used in SPR) (human, UniProt P04626 23-652); experiment: SPR, immobilized HER2 protein
T1 construct: also called immobilized HER2 protein; recombinant HER-2

[2] = target: T1, human HER-2 protein (soluble / …); experiment: SPR, human HER2 immobilised, Fab flown, 1:1 Langmuir model
Protocol: Rate constants of association, dissociation (kₐ, kd) and the equilibrium dissociation constants (KD) were determined for anti-HER2 Fab molecules. Human HER2 protein (50 μg/mL) was immobilised on the SPR sensor chip and was exposed to five different concentrations of each Fab in 2- or 3-fold dilutions over the flow cells. 1:1 Langmuir model was used to derive the constants.

Binder	koff [1] [s⁻¹]	also measured
B1	0.000177	
B2	0.00415	
B3	0.00486	
B4	0.0047	
B5	0.000499	
B6	0.00326	
B7	0.0102	
B8	0.00324	
B9	0.0187	
B10	0.0528	Kd [2]: 15.3 nM; koff [2]: 0.063 s⁻¹; kon [2]: 4.11e+06 M⁻¹ s⁻¹
B11	0.00063	
B12	0.00218	
B13	0.0196	Kd [2]: 20.5 nM; koff [2]: 0.042 s⁻¹; kon [2]: 2.03e+06 M⁻¹ s⁻¹
B14	0.00152	
B15	0.0714	
B16	0.00565	
B17	0.000324	
B18	0.00416	
B19	0.017	Kd [2]: 112 nM; koff [2]: 0.02 s⁻¹; kon [2]: 176000 M⁻¹ s⁻¹
B20	0.0342	
B21	0.00448	
B22	0.0272	
B23	0.00181	
B24	0.00502	
